Source: patent US20110305711A1 (Eli Lilly, published 2011)

T1: human α-CGRP (Bachem H1470) (human, UniProt P06881 83-119)
T1 peptide (looked up): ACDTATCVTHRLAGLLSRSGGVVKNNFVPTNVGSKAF


Tests used:
[1] = molecular target: Human CGRP (human) (UniProt P06881); assay: SPR, Biacore T100, 37 C
[2] = molecular target: Human CGRP (human) (UniProt P06881); assay: SPR, Biacore T100, 37 C, antibody captured on protein A, CGRP as analyte; n=1
[3] = molecular target: Human CGRP (human) (UniProt P06881); assay: SPR, Biacore T100, 37 C, antibody captured on protein A, CGRP as analyte; mean ± SD, n=6
[4] = molecular target: T1, human α-CGRP (Bachem H1470); assay: cell-based or functional assay
[5] = molecular target: Human CGRP (human) (UniProt P06881); assay: SPR, Biacore T100, 37 C, antibody captured on protein A, CGRP as analyte; mean ± SD, n=2
[6] = molecular target: Human CGRP (human) (UniProt P06881); assay: SPR, Biacore T100, 37 C, antibody captured on protein A, CGRP as analyte; mean ± SD, n=4
[7] = molecular target: Human CGRP (human) (UniProt P06881); assay: SPR, Biacore T100, 37 C, antibody captured on protein A, CGRP as analyte; mean ± SD, n=3

Kd [1]	inhibition of CGRP induced cAMP formation in SK-N-MC cells (IC50) [4]	Binder	also measured
< 200000 nM	–	Antibody I (antibody, human IgG4 S228P, kappa, F234A L235A, V domains shown) VH: QVQLVQSGAEVKKPGASVKVSCKASGYTFGNYWMQWVRQAPGQGLEWMGAIYEGTGDTRYIQKFAGRVTMTRDTSTSTVYMELSSLRSEDTAVYYCARLSDYVSGFSYWGQGTLVTVSS VL: DIQMTQSPSSLSASVGDRVTITCRASQDIDNYLNWYQQKPGKAPKLLIYYTSEYHSGVPSRFSGSGSGTDFTFTISSLQPEDIATYYCQQGDALPPTFGQGTKLEIKR	Kd [2]: 0.19 nM
< 200000 nM	0.41 nM	Antibody III (antibody, human IgG4 S228P, kappa, F234A L235A, V domains shown) VH: QVQLVQSGAEVKKPGSSVKVSCKASGYTFGNYWMQWVRQAPGQGLEWMGAIYEGTGKTVYIQKFADRVTITADKSTSTAYMELSSLRSEDTAVYYCARLSDYVSGFGYWGQGTTVTVSS VL: DIQMTQSPSSLSASVGDRVTITCRASKDISKYLNWYQQKPGKAPKLLIYYTSGYHSGVPSRFSGSGSGTDFTLTISSLQPEDFATYYCQQGDALPPTFGGGTKVEIKR	Kd [3]: 0.031 nM
< 200000 nM	–	Antibody V (antibody, human IgG4 S228P, kappa, F234A L235A, V domains shown) VH: QVQLVQSGAEVKKPGSSVKVSCKASGYTFGNYWMQWVRQAPGQGLEWMGAIYEGTGKTVYIQKFAGRVTITADKSTSTAYMELSSLRSEDTAVYYCARLSDYVSGFGYWGQGTTVTVSS VL: DIQMTQSPSSLSASVGDRVTITCRASQDIDKYLNWYQQKPGKAPKLLIYYTSGYHSGVPSRFSGSGSGTDFTLTISSLQPEDFATYYCQQGDALPPTFGGGTKVEIKR	Kd [5]: 0.024 nM
< 200000 nM	–	Antibody IV (antibody, human IgG4 S228P, kappa, F234A L235A, V domains shown) VH: QVQLVQSGAEVKKPGASVKVSCKASGYTFGNYWMQWVRQAPGQGLEWMGAIYEGTGKTVYIQKFAGRVTMTRDTSTSTVYMELSSLRSEDTAVYYCARLSDYVSGFGYWGQGTLVTVSS VL: DIQMTQSPSSLSASVGDRVTITCRASRPIDKYLNWYQQKPGKAPKLLIYYTSEYHSGVPSRFSGSGSGTDFTFTISSLQPEDIATYYCQQGDALPPTFGQGTKLEIKR	Kd [6]: 0.024 nM
< 200000 nM	–	Antibody II (antibody, human IgG4 S228P, kappa, F234A L235A, V domains shown) VH: QVQLVQSGAEVKKPGASVKVSCKASGYTFGNYWMQWVRQAPGQGLEWMGAIYEGTGKTVYIQKFAGRVTMTRDTSTSTVYMELSSLRSEDTAVYYCARLSDYVSGFSYWGQGTLVTVSS VL: DIQMTQSPSSLSASVGDRVTITCRASQDIDNYLNWYQQKPGKAPKLLIYYTSEYHSGVPSRFSGSGSGTDFTFTISSLQPEDIATYYCQQGDALPPTFGQGTKLEIKR	Kd [7]: 0.026 nM
–	5.36 nM	Antibody G1 (antibody, V domains shown) VH: EVQLVESGGGLVQPGGSLRLSCAASGFTFSNYWISWVRQAPGKGLEWVAEIRSESDASATHYAEAVKGRFTISRDNAKNSLYLQMNSLRAEDTAVYYCLAYFDYGLAIQNYWGQGTLVTVSS VL: EIVLTQSPATLSLSPGERATLSCKASKRVTTYVSWYQQKPGQAPRLLIYGASNRYLGIPARFSGSGSGTDFTLTISSLEPEDFAVYYCSQSYNYPYTFGQGTKLEIK	–
